This note sets out measurements from the supplement of paper PMC9112550, “Optimization of the antimicrobial peptide Bac7 by deep mutational scanning” (BMC Biology, 2022).

In the data set the test system is Escherichia coli TOP10. As to the kind of experiment: shrunken log2 fold change of peptide-encoding DNA abundance (4.5 h post-induction vs induction); higher = less antimicrobial activity (less host growth inhibition). Conditions: time post-induction: 4.5 h; library: site-saturation at positions 5, 18, 19, 20.
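Further: peptides expressed intracellularly from a pBAD plasmid library in pooled LB shake-flask culture, induced with 0.3% L-arabinose, DNA abundance read by NGS, three biological replicates, DESeq2 with apeglm shrinkage.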

In the case of RRIRARPPRLPRPRPRPVWVPRP, the “shrunken log2 fold change” value turned out to be 0.321.
For RRIRCRPPRLPRPRPRPCPKPRP, the “shrunken log2 fold change” value is -0.0654.
For RRIRERPPRLPRPRPRPWELPRP, the “shrunken log2 fold change” value is -0.238.
Then RRIRGRPPRLPRPRPRPSSEPRP, with 0.351.
Then RRIRLRPPRLPRPRPRPDRQPRP, with 0.00462; and RRIRIRPPRLPRPRPRPLHFPRP, with -0.511; and RRIRVRPPRLPRPRPRPHQFPRP, with -0.0147.
Then RRIRPRPPRLPRPRPRPTQSPRP, with 0.436; and RRIRNRPPRLPRPRPRPIGGPRP, with -0.00925; and RRIRWRPPRLPRPRPRPVYMPRP, with -0.476.
As for RRIRHRPPRLPRPRPRPDIRPRP, the “shrunken log2 fold change” value worked out at 0.0226.
Then RRIRTRPPRLPRPRPRPGFEPRP, with 0.613; and RRIRVRPPRLPRPRPRPYTTPRP, with -0.721.
Then RRIRQRPPRLPRPRPRPDPFPRP, with -0.401; and RRIRIRPPRLPRPRPRPTKLPRP, with -0.406; and RRIRGRPPRLPRPRPRPTYRPRP, with 0.138.
As for RRIRYRPPRLPRPRPRPEPQPRP, the figure is -0.777.
With RRIRDRPPRLPRPRPRPWWFPRP, the “shrunken log2 fold change” value is -0.00226.
As for RRIRLRPPRLPRPRPRPLQCPRP, the figure is 0.121; as for RRIRFRPPRLPRPRPRPGRFPRP, -0.223; as for RRIRCRPPRLPRPRPRPIKSPRP, -0.185.
As for RRIRQRPPRLPRPRPRPTKGPRP, the figure is -0.0785.
Then RRIRDRPPRLPRPRPRPLDMPRP, with -0.08; and RRIRFRPPRLPRPRPRPTIHPRP, with 0.865.
For RRIRERPPRLPRPRPRPCPPPRP, the “shrunken log2 fold change” value was -0.0496.
Then RRIRQRPPRLPRPRPRPLVHPRP, with -0.203.
As for RRIRCRPPRLPRPRPRPDKWPRP, the figure is 0.184.
Then RRIRKRPPRLPRPRPRPAACPRP, with 0.987.
Take RRIRHRPPRLPRPRPRPSAFPRP: the “shrunken log2 fold change” value was -0.435.
Then RRIRQRPPRLPRPRPRPGCTPRP, with -0.269; and RRIRRRPPRLPRPRPRPGGFPRP, with 0.36.
Then RRIRLRPPRLPRPRPRPIQKPRP, with 0.0625; and RRIRLRPPRLPRPRPRPATIPRP, with -0.0972; and RRIRKRPPRLPRPRPRPVLYPRP, with -0.0796.
Then RRIRRRPPRLPRPRPRPHMMPRP, with 0.176.
As to RRIRQRPPRLPRPRPRPWNFPRP, the “shrunken log2 fold change” value was -0.15.
Then RRIRRRPPRLPRPRPRPTSTPRP, with 0.158; and RRIRQRPPRLPRPRPRPTGPPRP, with 0.22.
As for RRIRARPPRLPRPRPRPWNVPRP, the figure is -0.181.
For the sequence RRIRTRPPRLPRPRPRPMTSPRP, the “shrunken log2 fold change” value was -0.168.
Then RRIRKRPPRLPRPRPRPRENPRP, with 0.559; and RRIRRRPPRLPRPRPRPIRRPRP, with -0.0312; and RRIRLRPPRLPRPRPRPAMNPRP, with -0.397.
Then RRIRGRPPRLPRPRPRPPPAPRP, with 1.57; and RRIRFRPPRLPRPRPRPVMGPRP, with 0.368; and RRIRDRPPRLPRPRPRPNMAPRP, with -0.144.
As for RRIRHRPPRLPRPRPRPPDSPRP, the figure is 0.139.
Turning to RRIRVRPPRLPRPRPRPVGNPRP, the “shrunken log2 fold change” value is -0.129.
Turning to RRIRPRPPRLPRPRPRPFDHPRP, the “shrunken log2 fold change” value is -0.105.
As for RRIRTRPPRLPRPRPRPRENPRP, the figure is 0.277; as for RRIRGRPPRLPRPRPRPNRAPRP, 0.43.
As for RRIRLRPPRLPRPRPRPFKKPRP, the figure is 0.0344.
As for RRIRWRPPRLPRPRPRPRCYPRP, the figure is -0.0698; as for RRIRRRPPRLPRPRPRPDWQPRP, 0.399.
Regarding RRIRCRPPRLPRPRPRPWFGPRP, the “shrunken log2 fold change” value was -0.374.
As for RRIRGRPPRLPRPRPRPKYQPRP, the figure is 0.159; as for RRIRARPPRLPRPRPRPMEGPRP, 0.667; as for RRIRARPPRLPRPRPRPQIFPRP, -0.0149.
As for RRIRSRPPRLPRPRPRPHCMPRP, the figure is -0.344; as for RRIRVRPPRLPRPRPRPKMYPRP, -0.252; as for RRIRDRPPRLPRPRPRPDFCPRP, -0.0409.
As for RRIRYRPPRLPRPRPRPHFAPRP, the figure is -0.284; as for RRIRLRPPRLPRPRPRPVLFPRP, -0.0101.
With RRIRKRPPRLPRPRPRPHNVPRP, the “shrunken log2 fold change” value was -0.097.
Then RRIRVRPPRLPRPRPRPASVPRP, with 0.0346.
As for RRIRPRPPRLPRPRPRPKASPRP, the figure is 0.105; as for RRIRLRPPRLPRPRPRPGIAPRP, -0.206; as for RRIRGRPPRLPRPRPRPYQMPRP, -0.0136.
As for RRIRTRPPRLPRPRPRPTKPPRP, the figure is 0.0402.
For the sequence RRIRWRPPRLPRPRPRPMLEPRP, the “shrunken log2 fold change” value was -0.0685.
As for RRIRNRPPRLPRPRPRPPHYPRP, the “shrunken log2 fold change” value was -0.245.
As for RRIRPRPPRLPRPRPRPTLRPRP, the figure is 0.449; as for RRIRFRPPRLPRPRPRPILTPRP, -0.689.
As for RRIRYRPPRLPRPRPRPGGRPRP, the figure is -0.019; as for RRIRDRPPRLPRPRPRPKKYPRP, -0.239.
As for RRIRCRPPRLPRPRPRPKWAPRP, the figure is 0.0877; as for RRIRKRPPRLPRPRPRPEVAPRP, 1.9.
Regarding RRIRARPPRLPRPRPRPEMCPRP, the “shrunken log2 fold change” value amounted to 1.17.
In the case of RRIRNRPPRLPRPRPRPGTWPRP, the “shrunken log2 fold change” value was determined as 0.218.
As for RRIRWRPPRLPRPRPRPIDMPRP, the figure is 0.0712.
For RRIRTRPPRLPRPRPRPGFRPRP, the “shrunken log2 fold change” value is -0.0537.
Then RRIRFRPPRLPRPRPRPNSYPRP, with -0.372.
For RRIRCRPPRLPRPRPRPIWWPRP, the “shrunken log2 fold change” value amounted to 0.475.
Then RRIRGRPPRLPRPRPRPDADPRP, with 3.64; and RRIRCRPPRLPRPRPRPAANPRP, with 0.0789; and RRIRERPPRLPRPRPRPASNPRP, with -0.257.
As for RRIRERPPRLPRPRPRPFTYPRP, the figure is -0.0534; as for RRIRLRPPRLPRPRPRPEDLPRP, 0.14; as for RRIRCRPPRLPRPRPRPTHMPRP, -0.173.
Consider RRIRCRPPRLPRPRPRPYPKPRP, for which the “shrunken log2 fold change” value amounted to 0.0488.
Then RRIRERPPRLPRPRPRPRVQPRP, with 0.00573; and RRIRHRPPRLPRPRPRPWFWPRP, with 0.0142.
As for RRIRQRPPRLPRPRPRPVWNPRP, the figure is -0.344; as for RRIRSRPPRLPRPRPRPRVGPRP, 0.578; as for RRIRERPPRLPRPRPRPACTPRP, -0.224.
Then RRIRRRPPRLPRPRPRPSEVPRP, with 1.94.
For the sequence RRIRTRPPRLPRPRPRPHDAPRP, the “shrunken log2 fold change” value was -0.0483.
As for RRIRGRPPRLPRPRPRPGFTPRP, the figure is 0.11; as for RRIRHRPPRLPRPRPRPMMWPRP, -0.0542; as for RRIRGRPPRLPRPRPRPSYHPRP, -0.299.
RRIRLRPPRLPRPRPRPKYLPRP: the “shrunken log2 fold change” value was -0.55.
Consider RRIRFRPPRLPRPRPRPMTLPRP, for which the “shrunken log2 fold change” value is -0.107.
As for RRIRFRPPRLPRPRPRPNKWPRP, the figure is -0.266.
Then RRIRDRPPRLPRPRPRPRDQPRP, with 0.477; and RRIRPRPPRLPRPRPRPWPGPRP, with 0.367; and RRIRMRPPRLPRPRPRPEKSPRP, with 2.
As for RRIRWRPPRLPRPRPRPAREPRP, the figure is 0.138.
RRIRHRPPRLPRPRPRPPVLPRP: the “shrunken log2 fold change” value was found to be 0.0936.
Then RRIRCRPPRLPRPRPRPMFFPRP, with -0.399; and RRIRCRPPRLPRPRPRPCIIPRP, with -0.538; and RRIRFRPPRLPRPRPRPVIDPRP, with -0.225.
As for RRIRVRPPRLPRPRPRPEAQPRP, the figure is 0.112; as for RRIRSRPPRLPRPRPRPRAAPRP, 0.504.
Then RRIRMRPPRLPRPRPRPRPDPRP, with 0.937; and RRIRARPPRLPRPRPRPRLTPRP, with 1.58; and RRIRFRPPRLPRPRPRPLGWPRP, with 0.494.
In the case of RRIRQRPPRLPRPRPRPWNGPRP, the “shrunken log2 fold change” value was -0.0018.
Then RRIRLRPPRLPRPRPRPARIPRP, with 0.00509.
Then RRIRGRPPRLPRPRPRPMNDPRP, with 0.337.
Then RRIRQRPPRLPRPRPRPHTYPRP, with -0.753.
For the sequence RRIRLRPPRLPRPRPRPPSKPRP, the “shrunken log2 fold change” value is 0.148.
On to RRIRLRPPRLPRPRPRPESGPRP, for which the “shrunken log2 fold change” value is 0.0315.
As for RRIRMRPPRLPRPRPRPLKQPRP, the figure is 0.513.
Take RRIRRRPPRLPRPRPRPIMLPRP: the “shrunken log2 fold change” value is -0.272.
Then RRIRSRPPRLPRPRPRPDPSPRP, with 0.0173.
